Measurements from the RNAGym collection of RNA variant scans (doi:10.7554/elife.80360).

B1: HDV Ribozyme (parent)
chain: GGCCGGCAUGGUCCCAGCCUCCUCGCUGGCGCCGGCUGGGCAACAUUCCGAGGGGACCGUCCCCUCGGUAAUGGCGAAUGGGACCCA

Variants of: B1
Experiment: self-cleavage, relative activity (ratio to wild type); higher = more cleavage; co-transcriptional

Which self-cleavage does the source give for GGCCGGCAUGGUCCCAGCCUCCUCGCUGGCGCCGGCUGUGCAAAAUUCCGAGGGGACCGUCCCCUCGGUAAUGGCGAAUGGGACCCA here?
The self-cleavage was 0.0627.

Which self-cleavage does the source give for GGCCGGCAUGGUCCCAGCCUCCUCGCUGGCGCCGGCUGCGCAACAUUCCGAGGGGACCAUCCCCUCGGUAAUGGCGAAUGGGACCCA here?
Its self-cleavage is 0.23.

For GGCCGGCAUGGUCCCAGCCUCCUCGCUGGCGCCGGCUGCGCAACAUUCCGAGGGGACCCUCCCCUCGGUAAUGGCGAAUGGGACCCA, which self-cleavage is on record?
Its self-cleavage is 0.162.

For GGCCGGCAUGGUCCCAGCCUCCUCGCUGGCGCCGGCUGAGCAACAUUCCGAGGGGACCGUCCCCUCUGUAAUGGCGAAUGGGACCCA, which self-cleavage is on record?
Its self-cleavage is 0.351.

Which self-cleavage does the source give for GGCCGGCAUGGUCCCAGCCUCCUCGCUGGCGCCGGCUGAGCAACAUUCCGAGGGGACCGUCCCCUCGGUAAUGGCGAAUGAGACCCA here?
The self-cleavage was 0.0898.

Which self-cleavage does the source give for GGCCGGCAUGGUCCCAGCCUCCUCGCUGGCGCCGGCUGCGCAACAUUCCAAGGGGACCGUCCCCUCGGUAAUGGCGAAUGGGACCCA here?
Its self-cleavage is 0.246.

For GGCCGGCAUGGUCCCAGCCUCCUCGCUGGCGCCGGCUGCGCAACAUUCCGACGGGACCGUCCCCUCGGUAAUGGCGAAUGGGACCCA, which self-cleavage is on record?
The self-cleavage was 0.309.

For GGCCGGCAUGGUCCCAGCCUCCUCGCUGGCGCCGGCUGCGCAACAUUCCGAGGGGACCGUCACCUCGGUAAUGGCGAAUGGGACCCA, which self-cleavage is on record?
Its self-cleavage is 0.244.

With GGCCGGCAUGGUCCCAGCCUCCUCGCUGGCGCCGGCUGAGCAACAUUCCGAGGUGACCGUCCCCUCGGUAAUGGCGAAUGGGACCCA as the variant, how does the self-cleavage read?
The self-cleavage was 0.517.

With GGCCGGCAUGGUCCCAGCCUCCUCGCUGGCGCCGGCUGAGCAACAUUCCGAGGCGACCGUCCCCUCGGUAAUGGCGAAUGGGACCCA as the variant, how does the self-cleavage read?
Its self-cleavage is 0.369.

With GGCCGGCAUGGUCCCAGCCUCCUCGCUGGCGCCGGCUGUGCACCAUUCCGAGGGGACCGUCCCCUCGGUAAUGGCGAAUGGGACCCA as the variant, how does the self-cleavage read?
Its self-cleavage is 0.237.

For GGCCGGCAUGGUCCCAGCCUCCUCGCUGGCGCCGGCUGCGCAACAUUCCGAGGGGACCGUCCCCUCGGUAAUGGCGAAUGGUACCCA, which self-cleavage is on record?
Its self-cleavage is 0.0791.

For GGCCGGCAUGGUCCCAGCCUCCUCGCUGGCGCCGGCUGCGCAACAUUCCGAGGGGACCGUCCCCUCGGUAAUGGCGAAUGGAACCCA, which self-cleavage is on record?
The self-cleavage was 0.0308.

For GGCCGGCAUGGUCCCAGCCUCCUCGCUGGCGCCGGCUGCGCAACAUUCCGAGGGGACCGUCCCCUCGGUACUGGCGAAUGGGACCCA, which self-cleavage is on record?
The self-cleavage was 0.0978.

Which self-cleavage does the source give for GGCCGGCAUGGUCCCAGCCUCCUCGCUGGCGCCGGCUGAGCAACAUUCCGAGGGGACCGUCCCCUCGGUAAUGUCGAAUGGGACCCA here?
The self-cleavage was 0.176.

For GGCCGGCAUGGUCCCAGCCUCCUCGCUGGCGCCGGCUGCGCAACAUUCGGAGGGGACCGUCCCCUCGGUAAUGGCGAAUGGGACCCA, which self-cleavage is on record?
The self-cleavage was 0.219.

With GGCCGGCAUGGUCCCAGCCUCCUCGCUGGCGCCGGCUGCGCAACAUUCCGAGCGGACCGUCCCCUCGGUAAUGGCGAAUGGGACCCA as the variant, how does the self-cleavage read?
Its self-cleavage is 0.

Which self-cleavage does the source give for GGCCGGCAUGGUCCCAGCCUCCUCGCUGGCGCCGGCUGCGCAACAUUCCGAGUGGACCGUCCCCUCGGUAAUGGCGAAUGGGACCCA here?
The self-cleavage was 0.133.

For GGCCGGCAUGGUCCCAGCCUCCUCGCUGGCGCCGGCUGCGCAACAUUCCGAGGGGACCGUCCGCUCGGUAAUGGCGAAUGGGACCCA, which self-cleavage is on record?
The self-cleavage was 0.0437.

Which self-cleavage does the source give for GGCCGGCAUGGUCCCAGCCUCCUCGCUGGCGCCGGCUGCGCCACAUUCCGAGGGGACCGUCCCCUCGGUAAUGGCGAAUGGGACCCA here?
Its self-cleavage is 0.244.

With GGCCGGCAUGGUCCCAGCCUCCUCGCUGGCGCCGGCUGCGCAACAUUCCGAGGGGACCGUCCCCUCGGUAAAGGCGAAUGGGACCCA as the variant, how does the self-cleavage read?
Its self-cleavage is 0.0426.

For GGCCGGCAUGGUCCCAGCCUCCUCGCUGGCGCCGGCUGAGCAACAUUCCGAGGGGACCGUCCCCUCGGUAAUGGCGAAUGGGAGCCA, which self-cleavage is on record?
The self-cleavage was 0.0852.

With GGCCGGCAUGGUCCCAGCCUCCUCGCUGGCGCCGGCUGCGCAACAUUCCGAGGGGACCGUCCCCUCGGUAAUGGCUAAUGGGACCCA as the variant, how does the self-cleavage read?
Its self-cleavage is 0.831.

With GGCCGGCAUGGUCCCAGCCUCCUCGCUGGCGCCGGCUGCGCAACAUUCCGAGGGGACCGUCCCCUCGGUAAUUGCGAAUGGGACCCA as the variant, how does the self-cleavage read?
Its self-cleavage is 0.106.

With GGCCGGCAUGGUCCCAGCCUCCUCGCUGGCGCCGGCUGUGCCACAUUCCGAGGGGACCGUCCCCUCGGUAAUGGCGAAUGGGACCCA as the variant, how does the self-cleavage read?
The self-cleavage was 0.237.

With GGCCGGCAUGGUCCCAGCCUCCUCGCUGGCGCCGGCUGUGCUACAUUCCGAGGGGACCGUCCCCUCGGUAAUGGCGAAUGGGACCCA as the variant, how does the self-cleavage read?
Its self-cleavage is 0.378.

Which self-cleavage does the source give for GGCCGGCAUGGUCCCAGCCUCCUCGCUGGCGCCGGCUGCGCAACAUUCCGAGGGGACCGUCCCCUCGGUAAUGGCGAAUGGGACCUA here?
The self-cleavage was 0.208.

Which self-cleavage does the source give for GGCCGGCAUGGUCCCAGCCUCCUCGCUGGCGCCGGCUGCGCAACAUUCCGAGGGGACCGUCCCCUCGGUAAUGGCGAAUGGGACCGA here?
The self-cleavage was 0.259.

With GGCCGGCAUGGUCCCAGCCUCCUCGCUGGCGCCGGCUGAGCAACAUUCCGAGUGGACCGUCCCCUCGGUAAUGGCGAAUGGGACCCA as the variant, how does the self-cleavage read?
The self-cleavage was 0.504.

With GGCCGGCAUGGUCCCAGCCUCCUCGCUGGCGCCGGCUGCGCAACAUUACGAGGGGACCGUCCCCUCGGUAAUGGCGAAUGGGACCCA as the variant, how does the self-cleavage read?
The self-cleavage was 0.125.

Which self-cleavage does the source give for GGCCGGCAUGGUCCCAGCCUCCUCGCUGGCGCCGGCUGAGCAACAUUCCAAGGGGACCGUCCCCUCGGUAAUGGCGAAUGGGACCCA here?
Its self-cleavage is 0.445.

For GGCCGGCAUGGUCCCAGCCUCCUCGCUGGCGCCGGCUGUGCAACAUUCCGAGGGGACCGUCCCCUCGGUCAUGGCGAAUGGGACCCA, which self-cleavage is on record?
Its self-cleavage is 0.536.
